Experimental data reported in US20240279325A1 (Chugai, published 2024).
Numbering of substitutions follows the chain as printed.

T1: human FcγRIIa type H (allotype H131) extracellular domain with C-terminal His tag (human, UniProt P12318 34-217)
T1 construct: extracellular domain; also called FcγRIIaH; not shown: His tag at the C terminus
T1 sequence (looked up): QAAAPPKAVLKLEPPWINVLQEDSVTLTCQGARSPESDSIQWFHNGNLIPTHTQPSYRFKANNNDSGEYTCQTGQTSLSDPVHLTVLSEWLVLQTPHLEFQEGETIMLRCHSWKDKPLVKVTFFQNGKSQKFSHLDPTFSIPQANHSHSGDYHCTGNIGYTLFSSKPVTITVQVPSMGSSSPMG

T2: FcγRIIa type H (allotype H131) extracellular domain with C-terminal His tag (human, UniProt P12318 34-217)
T2 construct: extracellular domain; also called FcγRIIaH; FcγRIIa H type
T2 sequence (looked up): T1 sequence (looked up)

T3: FcγRIIb extracellular domain with C-terminal His tag (human, UniProt P31994 43-217)
T3 construct: extracellular domain
T3 sequence (looked up): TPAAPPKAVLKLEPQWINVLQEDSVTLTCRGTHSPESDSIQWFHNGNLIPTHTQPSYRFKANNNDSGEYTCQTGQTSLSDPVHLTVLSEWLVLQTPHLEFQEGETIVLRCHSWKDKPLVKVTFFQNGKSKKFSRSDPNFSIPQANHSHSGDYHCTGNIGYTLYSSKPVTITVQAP

T4: human FcγRIIa type H (allotype H131) extracellular domain with C-terminal His tag (human, UniProt P12318 34-217)
T4 construct: also called FcγRIIaH
T4 sequence: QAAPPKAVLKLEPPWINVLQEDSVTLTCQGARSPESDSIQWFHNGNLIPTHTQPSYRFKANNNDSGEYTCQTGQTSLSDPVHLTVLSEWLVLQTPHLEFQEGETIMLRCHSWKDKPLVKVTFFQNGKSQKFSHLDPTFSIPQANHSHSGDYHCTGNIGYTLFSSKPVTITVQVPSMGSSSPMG

T5: FcγRIIa type R (allotype R131) extracellular domain with C-terminal His tag (human, UniProt P12318 34-217)
T5 construct: extracellular domain; also called FcγRIIaR; FcγRIIa R type
T5 sequence (looked up): T1 sequence (looked up) with H134R

T6: human FcγRIIa type R (allotype R131) extracellular domain with C-terminal His tag (human, UniProt P12318 34-217)
T6 construct: extracellular domain; also called FcγRIIaR; not shown: His tag at the C terminus
T6 sequence (looked up): T1 sequence (looked up) with H134R

B1: IL6R-BP234/IL6R-L (antibody, human IgG1, kappa, name in EU numbering)
heavy: QVQLQESGPGLVKPSETLSLTCAVSGHSISHDHAWSWVRQPPGEGLEWIGFISYSGITNYNPSLQGRVTISRDNSKNTLYLQMNSLRAEDTAVYYCARSLARTTAMDYWGEGTLVTVSSASTKGPSVFPLAPSSKSTSGGTAALGCLVKDYFPEPVTVSWNSGALTSGVHTFPAVLQSSGLYSLSSVVTVPSSSLGTQTYICNVNHKPSNTKVDKKVEPKSCDKTHTCPPCPAPDYLGDDSVFLFPPKPKDTLMISRTPEVTCVVVDVQDEDGEVKFNWYVDGVEVHNAKTKPREEQDNSTYRVVSVLTVLHQDWLNGKEYKCKVSNDALPKPIEKTISKAKGQPREPQVYTLPPSRDELTKNQVSLTCLVKGFYPSDIAVEWESNGQPENNYKTTPPVLDSDGSFFLYSKLTVDKSRWQQGNVFSCSVMHEALHNHYTQESLSLSP
light: not shown
notes: EU numbering; copies: 2 + 2
B2: IL6R-BP238/IL6R-L (antibody, human IgG1, kappa, name in EU numbering)
heavy: B1 heavy with Q269S, D328A, K332R
light: not shown
notes: EU numbering; copies: 2 + 2
B3: IL6R-BP241/IL6R-L (antibody, human IgG1, kappa, name in EU numbering)
heavy: B1 heavy with Y236L, Q269S, D298Y, K332R
light: not shown
notes: EU numbering; copies: 2 + 2
B4: IL6R-BP243/IL6R-L (antibody, human IgG1, kappa, name in EU numbering)
heavy: B1 heavy with Q269S, D298Y, D328K, K332R
light: not shown
notes: EU numbering; copies: 2 + 2
B5: IL6R-BP488/IL6R-L (antibody, human IgG1, kappa, name in EU numbering)
heavy: B1 heavy with Y236L, V266I, Q269A, D270E, D328K, K332R
light: not shown
notes: copies: 2 + 2
B6: IL6R-BP504/IL6R-L (antibody, human IgG1, kappa, name in EU numbering)
heavy: B1 heavy with Y236L, V266I, Q269A, D270E, E274P, D298Y, D328K, K332A
light: not shown
notes: copies: 2 + 2
B7: IL6R-BP503/IL6R-L (antibody, human IgG1, kappa, name in EU numbering)
heavy: B1 heavy with Y236L, V266I, Q269A, D270E, D328K, A329G, K332R, P398M
light: not shown
notes: copies: 2 + 2
B8: IL6R-BP505/IL6R-L (antibody, human IgG1, kappa, name in EU numbering)
heavy: B1 heavy with Y236L, V266I, Q269A, D270E, E274D, D298Y, D328K, K332A
light: not shown
notes: copies: 2 + 2
B9: IL6R-BP508/IL6R-L (antibody, human IgG1, kappa, name in EU numbering)
heavy: B1 heavy with Y236L, V266I, Q269A, D270E, E274P, D328K, K332A
light: not shown
notes: copies: 2 + 2
B10: IL6R-BP509/IL6R-L (antibody, human IgG1, kappa, name in EU numbering)
heavy: B1 heavy with Y236L, V266I, Q269A, D270E, E274D, D328K, K332A
light: not shown
notes: copies: 2 + 2
B11: IL6R-BP511/IL6R-L (antibody, human IgG1, kappa, name in EU numbering)
heavy: B1 heavy with D235E, Y236L, V266I, Q269A, D270E, E274P, D328K, K332R
light: not shown
notes: copies: 2 + 2
B12: IL6R-BP447/IL6R-L (antibody, human IgG1, kappa, name in EU numbering)
heavy: B1 heavy with Y236L, Q269A, D270E, D298Y, D328K, K332R, P398A
light: not shown
notes: copies: 2 + 2
B13: IL6R-BP451/IL6R-L (antibody, human IgG1, kappa, name in EU numbering)
heavy: B1 heavy with Y236L, Q269A, D270E, D298Y, D328K, K332R, P398G
light: not shown
notes: copies: 2 + 2
B14: IL6R-BP456/IL6R-L (antibody, human IgG1, kappa, name in EU numbering)
heavy: B1 heavy with Y236L, Q269A, D270E, D298Y, D328K, K332R, P398M
light: not shown
notes: copies: 2 + 2
B15: IL6R-BP186/IL6R-L (antibody, human IgG1, kappa, name in EU numbering)
heavy: B1 heavy with Q269S, D270H, D328A
light: not shown
notes: EU numbering; copies: 2 + 2
B16: IL6R-BP194/IL6R-L (antibody, human IgG1, kappa, name in EU numbering)
heavy: B1 heavy with Q269S, D298Y, D328A
light: not shown
notes: EU numbering; copies: 2 + 2
B17: IL6R-BP200/IL6R-L (antibody, human IgG1, kappa, name in EU numbering)
heavy: B1 heavy with Q269S, D270H, D298Y, K332R
light: not shown
notes: EU numbering; copies: 2 + 2
B18: IL6R-BP201/IL6R-L (antibody, human IgG1, kappa, name in EU numbering)
heavy: B1 heavy with Y236L, Q269S, D270H, D298Y, D328K, K332R
light: not shown
notes: EU numbering; copies: 2 + 2
B19: IL6R-BP210/IL6R-L (antibody, human IgG1, kappa, name in EU numbering)
heavy: B1 heavy with D235E, Y236L, Q269S, D298Y, D328K, K332R
light: not shown
notes: EU numbering; copies: 2 + 2
B20: IL6R-BP214/IL6R-L (antibody, human IgG1, kappa, name in EU numbering)
heavy: B1 heavy with Q269S, D270H, G273P
light: not shown
notes: EU numbering; copies: 2 + 2
B21: IL6R-BP208/IL6R-L (antibody, human IgG1, kappa, name in EU numbering)
heavy: B1 heavy with Y236L, Q269S, D298Y, D328K, K332R
light: not shown
notes: EU numbering; copies: 2 + 2
B22: IL6R-BP183/IL6R-L (antibody, human IgG1, kappa, name in EU numbering)
heavy: B1 heavy with D239G, Q269S, D270H, D298Y, D328A
light: not shown
notes: EU numbering; copies: 2 + 2
B23: IL6R-BP184/IL6R-L (antibody, human IgG1, kappa, name in EU numbering)
heavy: B1 heavy with Y236L, D239G, Q269S, D270H, D298Y, D328K
light: not shown
notes: EU numbering; copies: 2 + 2
B24: IL6R-BP206/IL6R-L (antibody, human IgG1, kappa, name in EU numbering)
heavy: B1 heavy with Y236L, D239G, Q269S, D270H, D298Y, D328K, K332R
light: not shown
notes: EU numbering; copies: 2 + 2
B25: IL6R-BP185/IL6R-L (antibody, human IgG1, kappa, name in EU numbering)
heavy: B1 heavy with Q269S, D270H, D298Y, D328A
light: not shown
notes: EU numbering; copies: 2 + 2
B26: IL6R-BP190/IL6R-L (antibody, human IgG1, kappa, name in EU numbering)
heavy: B1 heavy with D235E, Y236L, Q269S, D298Y, D328K
light: not shown
notes: EU numbering; copies: 2 + 2
B27: IL6R-BP192/IL6R-L (antibody, human IgG1, kappa, name in EU numbering)
heavy: B1 heavy with Y236L, D239G, Q269S, D328K
light: not shown
notes: EU numbering; copies: 2 + 2
B28: IL6R-BP193/IL6R-L (antibody, human IgG1, kappa, name in EU numbering)
heavy: B1 heavy with Y236L, D239G, Q269S, D298Y, D328K
light: not shown
notes: EU numbering; copies: 2 + 2
B29: IL6R-BP199/IL6R-L (antibody, human IgG1, kappa, name in EU numbering)
heavy: B1 heavy with Y236L, D239G, Q269S, D270H, G273P, D298Y, K332R
light: not shown
notes: EU numbering; copies: 2 + 2

Target: T1, human FcγRIIa type H (allotype H131) …
Test: SPR (Biacore), antibody captured, FcγR analyte

Binder | Kd
B1 | 20 µM
B2 | 7 µM
B3 | 9 µM
B4 | 6 µM

Target: T2, FcγRIIa type H (allotype H131) …
Test: SPR (Biacore), antibody captured, FcγR as analyte

Binder | Kd
B5 | 1.5 µM
B6 | 15 µM

Target: T3, FcγRIIb extracellular domain with …
Test: SPR; KD for FcγRIIaR divided by KD for FcγRIIb

Binder | KD(IIaR)/KD(IIb)
B5 | 40.1
B7 | 33.2
B6 | 18.5
B8 | 20
B9 | 26
B10 | 29.2
B11 | 50.6

Target: T4, human FcγRIIa type H (allotype H131) …
Test: SPR (Biacore), captured antibody, FcγR analyte

Binder | Kd
B12 | 2 µM
B13 | 2 µM
B14 | 2 µM

Target: T3, FcγRIIb extracellular domain with …
Test: SPR; KD of IL6R-B3/IL6R-L divided by KD of the variant

Binder | KD(IIb) OF PARENT POLYPEPTIDE/KD(IIb) OF ALTERED POLYPEPTIDE
B5 | 1680
B7 | 1810
B6 | 127
B8 | 145
B9 | 149
B10 | 174
B11 | 891

Target: T5, FcγRIIa type R (allotype R131) …
Test: as above

Binder | KD(IIaR) OF PARENT POLYPEPTIDE/KD(IIaR) OF ALTERED POLYPEPTIDE
B5 | 14.8
B7 | 19.4
B6 | 2.4
B8 | 2.6
B9 | 2
B10 | 2.1
B11 | 6.3

Target: T3, FcγRIIb extracellular domain with …
Test: SPR; KD for FcγRIIaH divided by KD for FcγRIIb

Binder | KD(IIaH)/KD(IIb)
B5 | 865
B7 | 503
B6 | 658
B8 | 514
B9 | 962
B10 | 444
B11 | 1240

Target: T1, human FcγRIIa type H (allotype H131) …
Test: SPR (Biacore), antibody captured, FcγR analyte
Remark: another data set of the same source

Binder | Kd
B15 | 93 µM
B16 | 85 µM
B17 | 42 µM
B18 | 69 µM
B19 | 95 µM
B20 | 92 µM
B21 | 83 µM

Target: T6, human FcγRIIa type R (allotype R131) …
Test: SPR (Biacore), antibody captured, FcγR analyte

Binder | Kd
B22 | 1.6 µM
B23 | 1.3 µM
B17 | 0.68 µM
B24 | 5.1 µM

Target: T7, human FcγRIa extracellular domain with C-terminal His tag (human, UniProt P12314 16-292)
T7 construct: not shown: His tag at the C terminus
T7 sequence (P12314 16-292): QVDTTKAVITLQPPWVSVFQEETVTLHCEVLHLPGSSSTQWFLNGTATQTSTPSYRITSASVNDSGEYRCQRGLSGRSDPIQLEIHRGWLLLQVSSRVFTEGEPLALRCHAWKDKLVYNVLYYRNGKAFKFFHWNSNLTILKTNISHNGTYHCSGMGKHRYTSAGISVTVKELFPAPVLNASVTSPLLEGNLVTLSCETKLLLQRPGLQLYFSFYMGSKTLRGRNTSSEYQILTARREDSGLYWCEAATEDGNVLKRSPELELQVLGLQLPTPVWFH
Test: SPR (Biacore), antibody captured, FcγR analyte

Binder | Kd
B25 | 0.053 µM
B26 | 0.053 µM
B27 | 0.0056 µM
B28 | 0.0053 µM
B29 | 0.0054 µM
B19 | 0.055 µM
